Laboratory results as given in the supplement of paper PMC12042874.
± gives the uncertainty stated by the source.

Test: amyloid nucleation score (Sup35N fusion, yeast selection) (log enrichment); library NNK3; higher = more nucleation; inactive = no reads after selection
Procedure, shortened: (§1)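 Three technical output replicates were used for random libraries. Psi-negative yeast expressing peptides of 20 random codons fused to Sup35N were induced with 100 μM copper sulfate for 24 hours and grown 7 days at 30°C on medium lacking adenine and uracil, and input and output plasmid inserts were Illumina-sequenced, excluding sequences with under 100 input reads. The nucleation score is the DiMSum log enrichment of output over input reads, centred on the mode score of non-aggregating sequences.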

Substance	amyloid nucleation score
GVLLV	inactive

Test: amyloid nucleation score (Sup35N fusion, yeast selection) (log enrichment); library NNK1; higher = more nucleation; inactive = no reads after selection
Procedure, shortened: as §1

Substance	amyloid nucleation score
DVGSNKGAIIGLMVGGVVIA	3.61 ± 0.19
GVLLV	0.129 ± 0.93
YSEFRDSLRSGIPLVPFVIQ	0.066 ± 0.88
YSFSRQVSMPSSYSFALF	-0.742 ± 0.65
YSGPGAGFGGLLCIGNAQNL	-0.108 ± 0.62
YSGVPLARQCGADGLKGTGE	0.724 ± 1.2
YSHDSSSTIFRNETPLSTPM	inactive
YSIDTGS	inactive
YSIPNDLNPSCKSHLMPRGH	1.23 ± 0.41
YSMVI	inactive
YSNIRFSMNIYRTLRDRLGA	5.12 ± 0.095
YSQCSRVNFWISAYCVNYIN	7.03 ± 0.071
YSRTNMFQ	-0.649 ± 0.5
YSSCFRSGIF	-0.68 ± 0.6
YSSWVKLASLVDRDVPQYDW	inactive
YSVFALRINLFAYTIPNSVL	-0.34 ± 0.24
YSWLVWGTSPV	0.445 ± 0.38
YSYNYGWTVAEELYNRCIGA	0.266 ± 0.36
YSYSEGSLYQCSVSVV	0.601 ± 0.7
YTPMTTSWLLPSLEINI	-0.069 ± 0.71
YTTASDNHVWSWLEYWVRVI	0.368 ± 0.56
YTVPQSLSLLCSAYLILLDA	0.561 ± 0.43

Substance	amyloid nucleation score
YVIFCTPSFFIL	5.52 ± 0.068
YVLLGFNYKTFYMSVGLDRE	-0.005 ± 0.52
YVNRVPLLEVLCP	-0.118 ± 1
YVTFGWIYTSLVPYRLEVIL	0.243 ± 0.42
YVTIIDKIYIWLDVVNRDLP	2.55 ± 0.29
YVWDAHIINVYLS	6.51 ± 0.081
YVWLMH	3.7 ± 0.11
YVYGYLNHRTSSGRMFFLFY	0.077 ± 0.38
YWAKCGWQAGKRYEV	0.803 ± 0.77
YWARRYLWAGFFI	-0.322 ± 1.1
YWCLRSLMV	inactive
YWHDVI	0.104 ± 1
YWILQV	0.299 ± 0.73
YYCLKPRGQSIGYGGNCLKA	0.134 ± 0.83
YYCYLLTNHPNTNGSVAFRL	0.934 ± 0.44
YYDYGEYIIKGVLPWIRGFY	0.513 ± 0.31
YYGQII	1.54 ± 0.38
YYISRVVVDGIRKYWGYLES	-0.866 ± 1.9
YYRGCHLYSHHPLRGLLGGV	inactive
YYSSHYVDIAHSKE	0.334 ± 0.32
YYSWQEDGFPFTNVSMFWS	-0.076 ± 0.37
YYWSYLALYSG	-0.57 ± 1.2

Test: amyloid nucleation score (Sup35N fusion, yeast selection) (log enrichment); library NNK2; higher = more nucleation; inactive = no reads after selection
Procedure, shortened: as §1

Substance	amyloid nucleation score
DVGSNKGAIIGLMVGGVVIA	2.4 ± 0.19
